Reference: patent US20260258084A1, “New Peptides as Selective IL-23 Receptor Antagonists” (Sanofi, priority 2022, published 2026)
Starred links: 1 amine or outer side, 2 acyl side, 3 side chain; linkers in the order of their positions; H or OH if unused. Positions of bridges follow the written chain, without caps; N, C: chain ends. Non-standard residues stand in square brackets, D forms with d. No end group written: not given here. Yde = (2S)-2-amino-3-[4-[2-(dimethylamino)ethoxy]phenyl]propanoic acid, CN(C)CCOc1ccc(C[C@H](N[*:1])C(=O)[*:2])cc1; Trp(7-Me) = Cc1cccc2c(C[C@H](N)C(=O)O)c[nH]c12; Trp(1-Me) = Cn1cc(C[C@H](N)C(=O)O)c2ccccc21; αMeLys(Me2) = CN(C)CCCC[C@](C)(N)C(=O)O; 2Nal = N[C@@H](Cc1ccc2ccccc2c1)C(=O)O; 3Pal = N[C@@H](Cc1cccnc1)C(=O)O; Dad = desamino-aspartamic acid; Lys(Me) = CNCCCC[C@H](N)C(=O)O; Thp = NC1(C(=O)O)CCOCC1; Aib = CC(C)(N)C(=O)O; Ava = NCCCCC(=O)O; Sar = CNCC(=O)O

target: T1, IL-23 receptor on the surface of HEK-Blue IL-23 cells (UniProt Q5VWK5 24-629, limits assumed); experiment: cell-based or functional assay
T1 sequence (looked up): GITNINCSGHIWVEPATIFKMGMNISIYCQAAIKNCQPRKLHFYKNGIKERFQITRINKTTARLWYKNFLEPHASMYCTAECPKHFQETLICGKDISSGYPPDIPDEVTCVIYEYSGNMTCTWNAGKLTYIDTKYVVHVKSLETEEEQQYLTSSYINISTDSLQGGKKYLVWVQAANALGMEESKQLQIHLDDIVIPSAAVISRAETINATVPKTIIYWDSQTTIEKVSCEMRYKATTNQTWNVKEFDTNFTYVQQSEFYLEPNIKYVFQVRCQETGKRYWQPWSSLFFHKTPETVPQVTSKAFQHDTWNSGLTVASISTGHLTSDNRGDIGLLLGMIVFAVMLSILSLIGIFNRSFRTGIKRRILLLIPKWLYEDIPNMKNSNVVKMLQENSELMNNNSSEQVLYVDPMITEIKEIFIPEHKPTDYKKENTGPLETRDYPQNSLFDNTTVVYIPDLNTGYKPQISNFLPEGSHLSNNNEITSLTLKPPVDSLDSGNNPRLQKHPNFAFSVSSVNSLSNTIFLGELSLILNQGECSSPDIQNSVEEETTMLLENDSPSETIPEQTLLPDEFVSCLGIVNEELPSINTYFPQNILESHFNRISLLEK

Row | Binder | pSTAT3 (nM)
1 | [Ava]CK[Trp(1-Me)]K(Ac)C[Yde][2Nal][Thp]EN[3Pal][Sar]-NH2 (lactam N-10; disulfide 2-6; not fully specified (residue 3); printed as Apt(§1)-C(§3)(@2)-K[aAc](@3)-Wme-K[Ac]-C(@2)-Yde-Nal-ThpE(§1)-N-Pal-Sar-NH2; also: K[aAc]: Cys2 bonded to epsilon-NH2 of acetylated Lys3, acetyl presumably on alpha-amine) [Compound of SEQ ID NO: 126] | 0.11
2 | [Ava]CK[Trp(7-Me)]K(Ac)C[Yde][2Nal][αMeLys(Me2)]EN[3Pal][Sar]-NH2 (lactam N-10; disulfide 2-6; not fully specified (residue 3); printed as Apt(§1)-C(§3)(@2)-K[aAc](@3)-Wim-K[Ac]-C(@2)-Yde-Nal-MKdm-E(§1)-N-Pal-Sar-NH2; also: K3 acetylated (K[aAc]), acetyl site not given here, ε-NH2 takes the Cys2 bond) [Compound of SEQ ID NO: 149] | 0.04
3 | [Dad]CNT[Trp(7-Me)]K(Ac)C[Yde][2Nal][αMeLys(Me2)][Lys(Me)]N[3Pal][Sar]-NH2 (lactam (positions not given here); disulfide 2-7; not fully specified (bridges); printed as Dad(§1)-C(@2)-N-T-Wim-K[Ac]-C(@2)-Yde-Nal-MKdm-Kme(§1)-N-Pal-Sar-NH2) [Compound of SEQ ID NO: 156] | 0.08
4 | [Dad]CNT[Trp(7-Me)]K(Ac)C[Yde][2Nal][Aib]KN[3Pal][Sar]-NH2 (lactam (positions not given here); disulfide 2-7; not fully specified (bridges); printed as Dad(§1)-C(@2)-N-T-Wim-K[Ac]-C(@2)-Yde-Nal-Aib-K(§1)-N-Pal-Sar-NH2) [Compound of SEQ ID NO: 157] | 0.06
5 | [Dad]CNT[Trp(7-Me)]LC[Yde][2Nal][αMeLys(Me2)]KN[3Pal]-NH2 (lactam (positions not given here); disulfide 2-7; not fully specified (bridges); printed as Dad(§1)-C(@2)-N-T-Wim-L-C(@2)-Yde-Nal-MKdm-K(§1)-N-Pal-NH2) [Compound of SEQ ID NO: 150] | 0.13
6 | [Dad]CNT[Trp(7-Me)]LC[Yde][2Nal][αMeLys(Me2)]KN[3Pal][Sar]-NH2 (lactam (positions not given here); disulfide 2-7; not fully specified (bridges); printed as Dad(§1)-C(@2)-N-T-Wim-L-C(@2)-Yde-Nal-MKdm-K(§1)-N-Pal-Sar-NH2) [Compound of SEQ ID NO: 154] | 0.08
7 | [Dad]CNT[Trp(7-Me)]LC[Yde][2Nal][αMeLys(Me2)]KA[3Pal][Sar]-NH2 (lactam (positions not given here); disulfide 2-7; not fully specified (bridges); printed as Dad(§1)-C(@2)-N-T-Wim-L-C(@2)-Yde-Nal-MKdm-K(§1)-A-Pal-Sar-NH2) [Compound of SEQ ID NO: 155] | 0.1
8 | [Dad]CNT[Trp(7-Me)]K(Ac)C[Yde][2Nal][αMeLys(Me2)]KN[3Pal][Sar]-NH2 (lactam (positions not given here); disulfide 2-7; not fully specified (bridges); printed as Dad(§1)-C(@2)-N-T-Wim-K[Ac]-C(@2)-Yde-Nal-MKdm-K(§1)-N-Pal-Sar-NH2) [Compound of SEQ ID NO: 151] | 0.06
9 | XCNTWQCXXXDNG (not fully specified; Ahx(§1)-C(@2)-N-T-W-Q-C(@2)-Yae-Nal-Aib-D(§1)-N-G-NH2) [Compound of SEQ ID NO: 9] | 65
